According to the nanobody polyreactivity screen of Harvey et al. (2022):

Assay: yeast display, Sf9 membrane polyspecificity reagent, FACS + sequencing; frameworks hold sequencing errors
Method in brief: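 Nanobodies came from a synthetic yeast display library in Saccharomyces cerevisiae BJ5465, induced with galactose for 36–48 hours and stained for 1 hour at 4 °C with 10% biotinylated, detergent-solubilized Sf9 membrane reagent. Cells were enriched on streptavidin microbeads and then FACS-sorted, with low and high (top ~1%) gates set on anti-HA fluorescence for expression and streptavidin fluorescence for reagent binding. Each polyreactivity label reflects the gate a clone came from. Genes were amplified by colony PCR, sequenced by MiSeq 2 × 250 and filtered by CDR length.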

Sequence | polyreactivity (PSR sort gate)
QVQLVESGGGLVQAGGSLRLSCAASGSTFITYAMGWYRQAPGKERELVAAIRWSGGGTYYADSVKGRFTISRDTAKNTVYLQMNSLKPEDTAVYYCAADHFNYTTGRDYWGQGTQVTVSS | low polyreactivity
QVQLVESGGGLVQAGGSLRLSCAASGFTFNFYVMGWYRQAPGKERELVAAITSNGGSTYYADSVKGRFTISRDNAKNTVYLQMNSLKPEDTAVYYCAADQYPTWSYLPFDYWGQGTQVTVSS | high polyreactivity
QVQLVESGGGLVQAGGSLRLSCAASGFIFTYNAMGWYIQAPGKEREFVASISRSGGRTYYADSVKGRFTISRDNAKNTVYLQMNSLKPEDTAVYYCAARNAYVYGMDYWGQGTQVTVSS | low polyreactivity
QVQLVESGGGLVQAGRSLRVRCAASGSTFGLYAKGWYRQAPGKERELVADITWSGGTTYYADSVMGRFTFSRDNAKNTVYLEINSLKPEDTAVYYCAARYPWVYDDFDYWGQGTQVNVSS | low polyreactivity
QVQLVESGGGLVQAGGSLRLSCAASGSTFDWYAMGWYRQAPGKDRELVAAISSDDSTYYADSVKGRFTISRDNAKNTVYLQMNSLIPEDTAVYYCAVDVYSDYGDYGYWGQGTQVTVSS | low polyreactivity
QVHLVESGGGLVQAGGSLRLSCAASGSTFATNAMGWYRQAPGIERELVAAITDGGSTNYADSVKGRFTISRDNAKNTVYLQMNSLKPEDTAVYYCAADGFKTVLPEYDYWGQGTQVTVSS | low polyreactivity
QVQLVESGGGLVQAGGSLRLSCAASGRIFPFNAMGWYRQAPGKERELVAAITSSGGRTYYADSVKGRFTISRDNAKNTVYLQMNSLKPEDTAVYYCAATLVRRARSGPMGYWGQGTQVTVSS | high polyreactivity
QVQLVESGGGFVQAGGSLRLSCAASGRIFPGYAKGWYRQAPGKERELVAAISASGGSTYYADSVKGRFTISRDNAKNTVYLQMNSLKPEDTAVYYCNAVYRRYEYWGQGTQVTVSS | high polyreactivity
QVQLVESGGGLVQAGGSLRLSCAASGLTFASNALGWYRQAPWKERELVAGISRTGTTTYYADSVKGRFTISRDNAKNTVYLQMNSLKPEDTAVYYCAASKQAVKYRSQRYYYWGQGTQVTVSS | high polyreactivity
QVQLVESGGGLVQAGGSLRLTCAASGRTFFVYAMGWYRPAPGKERELVASITLSGGSTYYADSVKGRFTISRDNAKNTVYLQMNSLKPEDTAVYYCAKGWSRDNDREREDEYWGQGTQVTVSS | low polyreactivity
QVQLVESGGGLDQAGGSLRLSCAASVSTFDAYAMVWSTQAPGQERELVAAISSSAASTSYADSVKGRFTISRDNAKNTVYVQMNSLKPEDTAFYYCAARPYRRPWYRGRYYYWGQGTQVTVSS | high polyreactivity
QVQLVESGGGLVQAGGSLRLSCAASGFIFRGNAMGWYRQAPGKERELVAAISKSGGRTYYADSVKGRFTISRDNAKNTVYLQMNSLKPEDTAVYYCNVLRLGLGRESDSWGQGTQVTVSS | high polyreactivity
QVQLVESGGGLVKAGGSLRLSCAASGFTFYLNAMGWSRQAPGKERELVAGISWRGGRTYYADSVKGRFTISRDNAKITVYVQLNSLKPEDTAVYYCAAVTYSFQKTDYYWGQGTQVTVSA | high polyreactivity
QVQLVESGGGLVQAGGSLRLSCAATGRIFRTTAMGWYRQAPGTVRELVAAITFSGGGTYYADSVKGRFTISRDHAKNTGYLQMNSLKPEETAFYYCYADDSYDLSCFEDDYWGQGTQVTVSS | low polyreactivity
QVQIVESGGGLVQAGGSLRLSCAASGRIFKLYAMGWSRQAPGKERELVAAITRRGGSTSYADSVKGRFTISRDNAKNTVYLQMNSLKPEDTAVYYCAASYTGRTVVQGYEYWGQGTQVTVSS | high polyreactivity
QVQLVESGGGLVQAGGSLRLSCAASGRTFQVYAMGWYRQAPGKERELVAAISSSGGITYYADSVKGRFTISRDNAKNTVYLQMNSLKPEDTAVYYCNTLYVSSNEYWGQGTQVTVSS | high polyreactivity
QVQLVESGGGLVQAGGSLRLSCAASGSIFTPNAMGWYRQAPGKERELVAAISSSSDRTYYADSVKGRFTISRDNAKNTVYLQMNSLKPEDTAVYYCAAYAQKRYYWGQGTQVTVSS | high polyreactivity
QVQLVESGGGLVQAGGSLRLSCAASGIIFYYNAMGWYRQAPGKERELVATIRWRGGSTYYADSVKGRFTISRDNAKNTVYLQMNSLKPEDTAVYYCNKSYDNSSDSDYWGQGTQVTVSS | low polyreactivity
QVQLVESGGGLVQAGGSGRLSCAASGITCAYYAMGWYRQAAGKERELVAVITSGGRPNYADSVKGRVTISRDNAKNTVYLQMNSLKPEDTAVYYCAAYRSSKTLRRGYYYWGQGTQVTGSS | high polyreactivity
QVQLVESGGGLVQAGGSLRLSCAASGRIKDNVMGWYRQAPGKERELVAAITRSAGRTYYADSVKGRFTISRDNAKNTVYLQMNSLKPEDTAVYYCAAQAERYGYEYWGQGTQVTVSS | low polyreactivity
QVLLVESGGGLVQAGGSLRLSCAASGFIFPYNAMGWYRQAPGKERELVASISGSGRTNYADSVKGRFTISRDNAKNTVYLQMNSLKPEDTAVYYCNKRWYVQKGYDYWGQGTQVTVSS | high polyreactivity
QVQLVESGGGLVQAGGSLRLSCAASGRTFSRYAMGWYRRAPGKERELVAAITKSGGSTYYADSVKGRFTISRDNAKITVYLQMNSLKPEDTAVYYCAVRYGGRFFRKYDYWGQGTQVTVSS | high polyreactivity

Sequence | polyreactivity (PSR sort gate)
QVQLVEPGGGLVQAGGSLRLSCAASGRTFYRYAMGWYRQAPGKERELVAAITWSGGRTYYADSVKGRFTMSRDYAKNTVYLQMNSLKPEDTAVYYCAADNSYRGYHSPYDYWGQGTQVTVSS | low polyreactivity
QVQHVESGGGLVQAGGSLRLSCAASGFTFYSYAMGWYRQAPGKERELVASITSGGSTYYADSVKGRFTISRDNAKNTVYLQMNSLKPEDTAVYYCAAPAVKPRRSYYYWGQGTQVTVSS | high polyreactivity
QVQLVESGGGLVQAGGSLRLSCAASGSIFPSNTMGWYRQAPGKERELVATIRWNTGSTYYADSVKGRFTISRDNAKNTVYLQMNSLKPEDTAVYYCAALYVWLWGYRFDYWGQGTQVTVSS | high polyreactivity
QVQLVESGGGLVQAGGSLRLSCAASGYLFSYYAMGWSRQAPGKERELVATIDWGGGSTYYADSVKGRFTISRDNAKNTVYLQMNSLKPEDTGVYYCSKDYYITKYGYRYDSWGQGTQVTVSS | low polyreactivity
QDQLVESGGGLVQAGGSLRLSCAASGITFRYYAMGWYRQAPGKERELVAAITGGGGSTYADSVKGRFTISRDNAKNTVYLQMNSLKPEDTAVYYCNATPRARSLPLRYQHDYWLQGTQVTVSS | low polyreactivity
QVQLVESGGGLVQAGGSLRLSCAASGSIFVDYTMGWYRQAPGKERELVAAITYRGTRTYYADSVKGRFTISRDNAKNTVYLQMNSLKPEDTAVYYCNKLYRRYPVPREYDYWGQGTQVSVSS | high polyreactivity
QVQLVESGGGLVQAGGSLRLSCAASGITFRRYAMGWYRQAPGKERELVASITRGGSTSYADSVKGRFRFSRDNAKNTVYLQMNSLKPEDTAVYYCAADAFRGFYWGQGTQVTVSS | high polyreactivity
QVQLVESGGGLVQAGGSLRLSCAASGSIFYVYAMGRYRQAPGKERELVASITRRRTNYADSVKVRFTISRDNAKNTVYLQMNSLKPEDTAVYYCAATTYVRQYATYDYWGQGTQVTVSS | high polyreactivity
QVQLVESGGGLVQAGGSLRLSCAASGRNFSTYAMGWYRQAPWKERELVAAINKIGGSTYYADSVKGRFTISRDNAKNTVYLQMNILKPEDTAVYYCAADAPYYPVRRYYYWGQGTQVTVSS | low polyreactivity
QVQLVESGGGLVQAGGSLRLSCAASGRTINRYAMGWYRQAPGKERELVAVITSDGRTNYADSVKGRFTISRDNAKNTVYLQMNSLKPEDTAVYYCNKRSALSFVYDFDYWGQGTQVTVSS | low polyreactivity
QVQLVESVGGLVQAGGSLRISSAASGRTFERNTKGWYRQAPGKERELVAAITYDGGSTYYADSVKGRFTISRDNAKKTVYLKMNSLKPEDTAFYYCNAGGYEIYRSPFDYWGQGSQVTVSS | low polyreactivity
QVQLVESGGGLVQAGGSLRLSCAASGGIFGLYAMGWYRQAPGKERELVAAISWSGGSTYYADSVKGRFTISRDNAKNTVYLQMNSLKPEDTAVYYCAAEWDTNFWYDYWGQGTQVTVSS | low polyreactivity
QVQLVESGGGLVQAGGSLRLICAASGRTFTYYDMGWYRQAPGKERELVAGITARGGSTYADSVKGRFTISRDNAKNTVYLQMNSLKPEDTAVYYCAADLYTSLDSTYDYWGQGTQVTVSS | low polyreactivity
QVQLVESGGGLVQAGGSLRLSCAASGSIFYYAMGWYRQAPGKERELVATISASGGSTYYADSVKGRFTISRDNEKNTVYLQMNSLKAEDTAVYYCAVRYKSWYGFNYWGQGTQVTVSS | high polyreactivity
QVQLVESGGGLVQAGGSLRLSCADSGFTFFSNAMGWYRQAPGKERELVAAITSSGRSTYADSVKGRYTISRDKAKNTVYLQMNSLKPEDSAVYYCAARRTGYLYRYGYWGQGTQVTVSS | low polyreactivity
QVQLVESGGGLVQAGGSLRLSCAASGFTFVKNAMGWYRQAPGKERELVAALSSRGGSTYYADSVKGRFTISRDNAKNTVYLQMNSLKPEDTAVYYCATERERTMGYWGQGTQVTVSS | high polyreactivity
QVQLVESGGGLVQAGGSLRLICAASGSIFTSNVMGWYRQSPGKERELVAAITITGTTNYADSVKGRFTISRDNAKYTVYLLMNSLKPEDTAVYDCAARHKQHNRYDYWGQGTQVTVSS | low polyreactivity
QVLLVESGGGLVQAGGSLRLSCAATARNFKYNTMGWYRQAPGKERELVAAISISGGSTYYADSVKGRFRISRDNSKNTVYLQMNSLKPEDTAVYYCNADTTYLSDYVTFAYWGQVTQVTVSS | low polyreactivity
QVQLVESGGGLVQAGGSLRLSCAASGSTFDANAMGWYRQAPGKERELVAAISSSGVRTYYADSVKGRFTISRDNAKNTVYLQMNSLKPEDTAVYYCAAGVVISTVDVTYGYWGQGTQVTVSS | low polyreactivity
QVQLVESGGGLVQAGGSLRLSCAASGFTFRTYAMGWYRQAPGKERELVATIRRAGSTNYADSVKGRFTISRDNAKNTVYLQMNSLNPEDTAVYYCAARVVTRVRGVGYNYWGQGTQVTVSS | high polyreactivity
QVQLVESGGGLVQAGGSLRLSCAASGITLKRYAMGWYRQAPGKERELVAAITGRGGGTNYADSVKGRFTISRDNAKNTVYLQMNSLKPEDTAVYYCTAATYGDYSNLGYGYWGQGTQVTVSS | high polyreactivity
